Here are results for 1 molecule from patent publication US20140199316A1 (published 2014).

This assay addresses T1, recombinant mouse E-selectin-human Fc chimera (mouse, UniProt Q00690 22-557).
T1 construct: Bought reagent (R&D Systems); Used as the probe in western blots and detected with HRP goat anti-human Ig; also called E-selectin-Ig chimera; E-Ig; not shown: human Fc
T1 sequence (looked up): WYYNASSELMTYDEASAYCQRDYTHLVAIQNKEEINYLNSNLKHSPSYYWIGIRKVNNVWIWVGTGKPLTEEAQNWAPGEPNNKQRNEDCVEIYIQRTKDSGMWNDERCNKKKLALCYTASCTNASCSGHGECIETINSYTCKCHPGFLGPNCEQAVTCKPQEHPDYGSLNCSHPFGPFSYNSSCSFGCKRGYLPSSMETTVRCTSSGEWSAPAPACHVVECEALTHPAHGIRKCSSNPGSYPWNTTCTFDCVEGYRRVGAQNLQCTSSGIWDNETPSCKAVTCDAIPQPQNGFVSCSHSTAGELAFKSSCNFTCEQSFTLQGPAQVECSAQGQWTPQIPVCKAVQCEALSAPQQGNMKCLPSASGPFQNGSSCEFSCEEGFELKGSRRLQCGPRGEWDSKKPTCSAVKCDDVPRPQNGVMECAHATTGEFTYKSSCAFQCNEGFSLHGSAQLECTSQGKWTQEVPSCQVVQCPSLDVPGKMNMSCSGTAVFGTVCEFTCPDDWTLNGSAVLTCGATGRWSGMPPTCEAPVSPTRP
Briefly: western blot of ML lysates and WGA-purified glycoproteins, reducing SDS-PAGE.

B1: P-selectin glycoprotein ligand-1 (PSGL-1), Cutaneous Lymphocyte Antigen glycoform, from ML lysates (ligand, human, UniProt Q14242 42-412, looked up)
chain: QATEYEYLDYDFLPETEPPEMLRNSTDTTPLTGPGTPESTTVEPAARRSTGLDAGGAVTELTTELANMGNLSTDSAAMEIQTTQPAATEAQTTQPVPTEAQTTPLAATEAQTTRLTATEAQTTPLAATEAQTTPPAATEAQTTQPTGLEAQTTAPAAMEAQTTAPAAMEAQTTPPAAMEAQTTQTTAMEAQTTAPEATEAQTTQPTATEAQTTPLAAMEALSTEPSATEALSMEPTTKRGLFIPFSVSSVTHKGIPMAASNLSVNYPVGAPDHISVKQCLLAILILALVATIFFVCTVVLAVRLSRKGHMYPVRNYSPTEMVCISSLLPDGGEGPSATANGGLSKAKSPGLTPEPREDREGDDLTLHSFLP
modifications: sialofucosylated glycans
notes: Named only by the position of its band in the blot; also called CLA; ~140 kDa E-selectin ligand
For the molecule B1, the binding result is reported as “binds”.
